{
  "source": "patent US20070036810A1",
  "about": "“Cyclic amp response element activator proteins and uses related thereto” (priority 2003, published 2007)",
  "molecules": {"B1": {"name": "CREAP1: human CRE activating protein 1, 650 amino acids, SEQ ID NO 2; expressed from pCMVSPORT-CREAP1 (protein)", "chain": "MATSNNPRKFSEKIALHNQKQAEETAAFEEVMKDLSLTRAARLQLQKSQYLQLGPSRGQYYGGSLPNVNQIGSGTMDLPFQPSGFLGEALAAAPVSLTPFQSSGLDTSRTTRHHGLVDRVYRERGRLGSPHRRPLSVDKHGRQADSCPYGTMYLSPPADTSWRRTNSDSALHQSTMTPTQPESFSSGSQDVHQKRVLLLTVPGMEETTSEADKNLSKQAWDTKKTGSRPKSCEVPGINIFPSADQENTTALIPATHNTGGSLPDLTNIHFPSPLPTPLDPEEPTFPALSSSSSTGNLAANLTHLGIGGAGQGMSTPGSSPQHRPAGVSPLSLSTEARRQQASPTLSPLSPITQAVAMDALSLEQQLPYAFFTQAGSQQPPPQPQPPPPPPPASQQPPPPPPPQAPVRLPPGGPLLPSASLTRGPQPPPLAVTVPSSLPQSPPENPGQPSMGIDIASAPALQQYRTSAGSPANQSPTSPVSNQGFSPGSSPQHTSTLGSVFGDAYYEQQMAARQANALSHQLEQFNMMENAISSSSLYSPGSTLNYSQAAMMGLTGSHGSLPDSQQLGYASHSGIPNIILTVTGESPPSLSKELTSSLAGVGDVSFDSDSQFPLDELKIDPLTLDGLHMLNDPDMVLADPATEDTFRMDRL", "modifications": "human"}},
  "key": {"[1]": {"tested_on": "cAMP responsive genes in HeLa cells", "details": "vs pCMV-Sport6 vector", "description": "HeLa cells are transfected with CREAP1 as described herein or expression constructs containing relA, (Ruben S M et al., Science 1991 Mar. 22;251(5000):1490-3), MAP3K11 (Hartkamp, J. et al., (1999). Cancer Res. 59, 2195-2202) or ANKRD3 (Muto, A., et al., (2002) J. Biol. Chem. 277, 31871-31876.) using Targefect F1 transfection reagent (Targeting Systems, Santee, Calif.) according to the protocol supplied with the product. Briefly, HeLa cells are used for the transfection at 70-80% of confluency in T75 tissue culture flasks (Falcon). Transfection mixes are prepared as follows: to 50 ml conical tube (Falcon) with 8 ml of Opti-MEM I 20 μg of selected plasmid DNA is added and mixed by flicking the tube. Two transfections are set up with pCMV-Sport6 empty vector. Targefect F-1 stock solution is vortexed at full speed for 20 seconds and 40 μl are added to each tube, mixed again by flicking the tube and incubated at room temperature for 30 minutes to allow formation of transfection complexes. HeLa cells are washed twice with 20 ml of Opti-MEM I medium and […] of each transfection complex are added per 1 T75 flask. After 4 hrs of incubation at 37° C. 8 ml of growth media with serum is added to each flask. The media is replaced the next day. 56 hours post-transfection the media is replaced again and to one of the flasks transfected with pCMV-Sport6 plasmid TNFα (R&D Systems) is added at 50 ng/ml and the incubation is continued at 37° C. for the next 16 hours. 72 hours post-transfection cells are collected in 10 ml of TRIzol reagent (Gibco BRL) and frozen at −80° C. Total RNA is isolated according to the protocol supplied with the TRIzol reagent. Synthesis labeling of double-stranded cDNA probes, Affymetrix Gene-Chip hybridization and data analysis are done according to conventional methods (see also Eberwine, J., et al., J. Neurosci. 21, 8310-8314 and Hakak, Y., et al., (2001) Proc. Natl. Acad. Sci. U.S.A. 98, 4746-4751).\nTo determine if CREAP1 regulates expression of authentic CREB targets, cellular gene expression was measured using DNA microarrays after overexpression of CREAP1. Briefly, HeLa cells were transiently transfected with pCMV-Sport6, CREAP1 using Targefect F1 reagent (Targeting Systems). One half of pCMV-Sport6 transfected cells were left untreated and was used as a negative control. Total RNA isolation, labeled probe preparation and DNA microchip hybridization protocol were performed as described above."}, "[2]": {"target": "T1, CREB-GAL4 fusion molecule (UniProt P04386+P16220)", "T1 construct": "host or cells: HLR cell line (5x GAL4 element-luciferase reporter)", "T1 sequence (P04386+P16220 fused)": "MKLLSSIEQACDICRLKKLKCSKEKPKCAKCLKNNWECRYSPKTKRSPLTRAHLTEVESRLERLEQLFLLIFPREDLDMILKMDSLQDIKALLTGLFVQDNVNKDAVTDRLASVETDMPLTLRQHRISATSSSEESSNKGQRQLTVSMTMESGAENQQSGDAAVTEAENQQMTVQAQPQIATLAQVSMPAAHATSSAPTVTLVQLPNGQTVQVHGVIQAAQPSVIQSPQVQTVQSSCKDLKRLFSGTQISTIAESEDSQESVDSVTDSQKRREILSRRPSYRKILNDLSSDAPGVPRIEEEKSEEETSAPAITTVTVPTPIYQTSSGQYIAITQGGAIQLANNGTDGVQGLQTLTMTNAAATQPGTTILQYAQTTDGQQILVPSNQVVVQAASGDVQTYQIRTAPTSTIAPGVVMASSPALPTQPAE", "test": "In vivo kinase assay, CREB-GAL4 fusion in HLR cells", "format": "cell-based", "details": "40 hours after transfection", "protocol": "For in vivo kinase assay, activation domains of CREB or ATF2 transcription factors fused with the yeast GAL4 DNA binding domain (1-147 Amino Acids) constructs are used (Stratagene, PathDetect In Vivo Signal Transduction Pathway trans-reporting Systems). The HLR cell line that contains a 5× GAL4 DNA binding element and TATA box driving luciferase reporter is used per manufacturer's protocol (Stratagene). 10^4 HLR cells are split into each well of 96 well tissue culture plates. After 16 hours, cells are transfected with 100 ng of Creb-GAL4 or ATF2-GAL4 fusion constructs, 30 ng of Renilla luciferase control plasmid together with 100 ng of pCMVSPORT6, pCMVSPORT-CREAP1, pFC-PKA or pFC-MEKK (Stratagene) activator plasmids respectively. Transfection is done with Fugene6 reagent (Roche Molecular Biochemicals, Basel, Switzerland) according to the manufacturers manual. Forty hours after transfection, a Dual-Glo Luciferase assay (Promega) is conducted using the manufacturer's protocol.\nAs CREAP1 strongly activates CRE promoter transcription, we next investigated whether CREAP1 works through the CREB pathway. […]"}},
  "note": "Like-named read-outs stand apart in the source and are kept apart here.",
  "data": [
    {"molecule": "B1", "values": [
      {"measurement": "Fold Activation", "setting": "[1]; CAPL protein mRNA (38088_r_at)", "result": 19},
      {"measurement": "Fold Activation", "setting": "[1]; DKFZp566K192 mRNA (32242_at)", "result": 32},
      {"measurement": "Fold Activation", "setting": "[1]; Exodus-1 mRNA (40385_at)", "result": 15},
      {"measurement": "Fold Activation", "setting": "[1]; IL-8 mRNA (1369_s_at)", "result": 2.5},
      {"measurement": "Fold Activation", "setting": "[1]; KIAA0467 mRNA (41458_at)", "result": 12},
      {"measurement": "Fold Activation", "setting": "[1]; PEPCK mRNA (33702_f_at)", "result": 32},
      {"measurement": "Fold Activation", "setting": "[1]; TSHa mRNA (39352_at)", "result": 57},
      {"measurement": "Fold Activation", "setting": "[1]; amphiregulin mRNA (34898_at)", "result": 19},
      {"measurement": "transactivation of the CREB-GAL4 fusion molecule on the GAL4 promoter", "setting": "[2]", "result": "strongly stimulates"}
    ]}
  ]
}
